Source: patent US5840530, “DNA encoding receptors for the beta-2 chain of human IL-12” (Hoffmann-La Roche Inc., dated 1998)

Legend:
[1] = target: T1, human IL-12 receptor beta1 and beta2 coexpressed on COS cells (cotransfection of the pEF-BOS beta1 plasmid … (human)); experiment: equilibrium binding of 125I-labeled IL-12 to COS cells cotransfected with beta1 and beta2 plasmids, Scatchard analysis, high affinity site
Protocol: (§1) Recombinant human IL-12 was labeled with ^125I as follows. Iodogen was dissolved in chloroform. 0.05 mg aliquots of Iodogen were dried in 12×150 mm borosilicate glass tubes. For radiolabeling, 1.0 mCi Na[^125I] was added to the Iodogen-coated borosilicate glass tube, which also contained 0.05 ml of Tris-iodination buffer (25 mM Tris-HCL pH 7.5, 0.4M NaCl and 1 mM EDTA) to form a ^125I solution. The ^125I solution was activated by incubating for 6 minutes at room temperature. The activated ^125I solution was transferred to a tube containing 0.05 to 0.1 ml recombinant human IL-12 (31.5 µg) in Tris-iodination buffer. The resulting mixture of the activated ^125I solution and the recombinant human IL-12 was incubated for 6 minutes at room temperature. At the end of the incubation, 0.05 ml of Iodogen stop buffer (10 mg/ml tyrosine, 10% glycerol in Dulbecco's phosphate buffered saline (PBS), pH 7.40) was added and reacted for 3 minutes. The resulting mixture was then diluted with 1.0 ml Tris-iodination buffer containing 0.25% bovine serum albumin (BSA), and applied to a Bio-Gel P10DG desalting column for chromatography. The column was eluted with Tris-iodination buffer containing 0.25% BSA. […] The TCA precipitable radioactivity (10% TCA final concentration) was typically in excess of 95% of the total radioactivity. […]

[2] = target: T1, human IL-12 receptor beta1 and beta2 …; experiment: equilibrium binding of 125I-labeled IL-12 to COS cells cotransfected with beta1 and beta2 plasmids, Scatchard analysis, low affinity site
Protocol: as §1

- Kd [1]: 0.05 nM
- Kd [2]: 5 nM
B1: recombinant human IL-12 (Interleukin-12) (ligand)
chain 1: IWELKKDVYVVELDWYPDAPGEMVVLTCDTPEEDGITWTLDQSSEVLGSGKTLTIQVKEFGDAGQYTCHKGGEVLSHSLLLLHKKEDGIWSTDILKDQKEPKNKTFLRCEAKNYSGRFTCWWLTTISTDLTFSVKSSRGSSDPQGVTCGAATLSAERVRGDNKEYEYSVECQEDSACPAAEESLPIEVMVDAVHKLKYENYTSSFFIRDIIKPDPPKNLQLKPLKNSRQVEVSWEYPDTWSTPHSYFSLTFCVQVQGKSKREKKDRVFTDKTSATVICRKNASISVRAQDRYYSSSWSEWASVPCS
chain 2: RNLPVATPDPGMFPCLHHSQNLLRAVSNMLQKARQTLEFYPCTSEEIDHEDITKDKTSTVEACLPLELTKNESCLNSRETSFITNGSCLASRKTSFMMALCLSSIYEDLKMYQVEFKTMNAKLLMDPKRQIFLDQNMLAVIDELMQALNFNSETVPQKSSLEEPDFYKTKIKLCILLHAFRIRAVTIDRVMSYLNAS
